Legend:
1N3R Tau (human) = 1N3R Tau (human) (UniProt P10636)
1N4R Tau (human) = 1N4R Tau (human) (UniProt P10636)

Row | disaggregation of 1N3R Tau fibrils with HSC70, HSPA4 and ATP: Tau shifted to the supernatant fraction (centrifugation, immunoblot) (1N3R Tau (human)) [%] | disaggregation of 1N4R Tau fibrils with HSC70, HSPA4 and ATP: Tau shifted to the supernatant fraction (centrifugation, immunoblot) (1N4R Tau (human)) [%] | Substance
1 | 50 | 26 | DNAJB1 (from UniProt P25685 1-340) (natural protein)
2 | 50 | 36 | DNAJB4 (from UniProt Q9UDY4 1-337) (natural protein)

From article PMC7363153
